Data from patent US8071348B2, “Protein tyrosine phosphatase substrate-trapping double mutant and uses thereof” (Albert Einstein College of Medicine of Yeshiva University, priority 2002, dated 2011).

Key:
[1] = target: epidermal growth factor receptor (EGFR) of COS1 cells, tyrosine-phosphorylated (monkey (COS1 cells)); test: cell-based or functional assay
[2] = target: epidermal growth factor receptor (EGFR) of COS1 cells, tyrosine-phosphorylated (monkey (COS1 cells)); test: co-immunoprecipitation from EGF-treated COS1 lysates with anti-HA agarose, anti-pTyr blot

“HA-tagged full-length human PTP1B D181A/Q262A (from UniProt P18031 1-435) (enzyme)” was tested, and the protection of the phosphorylated EGF receptors in COS1 cells, against the D181A mutant (anti-pTyr immunoblot of lysates) [1] was 3 fold and the fold greater quantity of tyrosine-phosphorylated EGF receptor co-precipitated than with the D181A mutant [2] was over 3 fold.
